Legend:
[1] = target: T1, Lys(Dnp)-ATNATMGPRIVGG-Lys(Abz)
T1 chain: KATNATMGPRIVGGK

[2] = target: T2, Lys(Dnp)-ATNATFQPRIVGG-Lys(Abz)
T2 chain: KATNATFQPRIVGGK

[3] = target: T3, Lys(Dnp)-ATNATWAPRIVGG-Lys(Abz)
T3 chain: KATNATWAPRIVGGK

[4] = target: T4, Lys(Dnp)-ATNATMYPRIVGG-Lys(Abz)
T4 chain: KATNATMYPRIVGGK

[5] = target: T5, Lys(Dnp)-ATNATWKPRIVGG-Lys(Abz)
T5 chain: KATNATWKPRIVGGK

[6] = target: T6, Lys(Dnp)-ATNATVWPRIVGG-Lys(Abz)
T6 chain: KATNATVWPRIVGGK

[7] = target: T7, Lys(Dnp)-ATNATPQPRIVGG-Lys(Abz)
T7 chain: KATNATPQPRIVGGK

[8] = target: T8, Lys(Dnp)-ATNATLYPRIVGG-Lys(Abz)
T8 chain: KATNATLYPRIVGGK

[9] = target: T9, Lys(Dnp)-ATNATAAPRIVGG-Lys(Abz)
T9 chain: KATNATAAPRIVGGK

[10] = target: T10, Lys(Dnp)-ATNATRPPRIVGG-Lys(Abz)
T10 chain: KATNATRPPRIVGGK

[11] = target: T11, Lys(Dnp)-ATNATFWPRIVGG-Lys(Abz)
T11 chain: KATNATFWPRIVGGK

[12] = target: T12, Lys(Dnp)-ATNATIQPRIVGG-Lys(Abz)
T12 chain: KATNATIQPRIVGGK

[13] = target: T13, Lys(Dnp)-ATNATLTPRIVGG-Lys(Abz)
T13 chain: KATNATLTPRIVGGK

[14] = target: T14, Lys(Dnp)-ATNATLIPRIVGG-Lys(Abz)
T14 chain: KATNATLIPRIVGGK

[15] = target: T15, Lys(Dnp)-ATNATVVPRIVGG-Lys(Abz)
T15 chain: KATNATVVPRIVGGK

[16] = target: T16, Lys(Dnp)-ATNATQSPRIVGG-Lys(Abz)
T16 chain: KATNATQSPRIVGGK

[17] = target: T17, Lys(Dnp)-ATNATFLPRIVGG-Lys(Abz)
T17 chain: KATNATFLPRIVGGK

[18] = target: T18, Lys(Dnp)-ATNATPSPRIVGG-Lys(Abz)
T18 chain: KATNATPSPRIVGGK

[19] = target: T19, Lys(Dnp)-ATNATIEPRIVGG-Lys(Abz)
T19 chain: KATNATIEPRIVGGK

[20] = target: T20, Lys(Dnp)-ATNATASPRIVGG-Lys(Abz)
T20 chain: KATNATASPRIVGGK

[21] = target: T21, Lys(Dnp)-ATNATWLPRIVGG-Lys(Abz)
T21 chain: KATNATWLPRIVGGK

[22] = target: T22, Lys(Dnp)-ATNATMAPRIVGG-Lys(Abz)
T22 chain: KATNATMAPRIVGGK

[23] = target: T23, Lys(Dnp)-ATNATTQPRIVGG-Lys(Abz)
T23 chain: KATNATTQPRIVGGK

[24] = target: T24, Lys(Dnp)-ATNATMSPRIVGG-Lys(Abz)
T24 chain: KATNATMSPRIVGGK

[25] = target: T25, Lys(Dnp)-ATNATHHPRIVGG-Lys(Abz)
T25 chain: KATNATHHPRIVGGK

[26] = target: T26, Lys(Dnp)-ATNATMWPRIVGG-Lys(Abz)
T26 chain: KATNATMWPRIVGGK

[27] = target: T27, Lys(Dnp)-ATNATFEPRIVGG-Lys(Abz)
T27 chain: KATNATFEPRIVGGK

[28] = target: T28, Lys(Dnp)-ATNATKNPRIVGG-Lys(Abz)
T28 chain: KATNATKNPRIVGGK

[29] = target: T29, Lys(Dnp)-ATNATGTPRIVGG-Lys(Abz)
T29 chain: KATNATGTPRIVGGK

[30] = target: T30, Lys(Dnp)-ATNATEQPRIVGG-Lys(Abz)
T30 chain: KATNATEQPRIVGGK

[31] = target: T31, Lys(Dnp)-ATNATREPRIVGG-Lys(Abz)
T31 chain: KATNATREPRIVGGK

[32] = target: T32, Lys(Dnp)-ATNATWFPRIVGG-Lys(Abz)
T32 chain: KATNATWFPRIVGGK

[33] = target: T33, Lys(Dnp)-ATNATQYPRIVGG-Lys(Abz)
T33 chain: KATNATQYPRIVGGK

[34] = target: T34, Lys(Dnp)-ATNATQKPRIVGG-Lys(Abz)
T34 chain: KATNATQKPRIVGGK

[35] = target: T35, Lys(Dnp)-ATNATKIPRIVGG-Lys(Abz)
T35 chain: KATNATKIPRIVGGK

[36] = target: T36, Lys(Dnp)-ATNATDTPRIVGG-Lys(Abz)
T36 chain: KATNATDTPRIVGGK

[37] = target: T37, Lys(Dnp)-ATNATAQPRIVGG-Lys(Abz)
T37 chain: KATNATAQPRIVGGK

[38] = target: T38, Lys(Dnp)-ATNATTMPRIVGG-Lys(Abz)
T38 chain: KATNATTMPRIVGGK

[39] = target: T39, Lys(Dnp)-ATNATKLPRIVGG-Lys(Abz)
T39 chain: KATNATKLPRIVGGK

[40] = target: T40, Lys(Dnp)-ATNATNEPRIVGG-Lys(Abz)
T40 chain: KATNATNEPRIVGGK

[41] = target: T41, Lys(Dnp)-ATNATIPPRIVGG-Lys(Abz)
T41 chain: KATNATIPPRIVGGK

B1: Human plasma purified Factor Xa (protein)
chain 1: ANSFLEEMKKGHLERECMEETCSYEEAREVFEDSDKTNEFWNKYKDGDQCETSPCQNQGKCKDGLGEYTCTCLEGFEGKNCELFTRKLCSLDNGDCDQFCHEEQNSVVCSCARGYTLADNGKACIPTGPYPCGKQTLER
chain 2: IVGGQECKDGECPWQALLINEENEGFCGGTILSEFYILTAAHCLYQAKRFKVRVGDRNTEQEEGGEAVHEVEVVIKHNRFTKETYDFDIAVLRLKTPITFRMNVAPACLPERDWAESTLMTQKTGIVSGFGRTHEKGRQSTRLKMLEVPYVDRNSCKLSSSFIITQNMFCAGYDTKQEDACQGDSGGPHVTRFKDTYFVTGIVSWGEGCARKGKYGIYTKVTAFLKWIDRSMKTRGLPKAKSHAPEVITSSPLK
FXa kcat/KM [1]: 54 M⁻¹ s⁻¹
FXa kcat/KM [2]: 260 M⁻¹ s⁻¹
FXa kcat/KM [3]: 42 M⁻¹ s⁻¹
FXa kcat/KM [4]: 110 M⁻¹ s⁻¹
FXa kcat/KM [5]: 41 M⁻¹ s⁻¹
FXa kcat/KM [6]: 190 M⁻¹ s⁻¹
FXa kcat/KM [7]: 1100 M⁻¹ s⁻¹
FXa kcat/KM [8]: 160 M⁻¹ s⁻¹
FXa kcat/KM [9]: 45 M⁻¹ s⁻¹
FXa kcat/KM [10]: 7 M⁻¹ s⁻¹
FXa kcat/KM [11]: 370 M⁻¹ s⁻¹
FXa kcat/KM [12]: 1700 M⁻¹ s⁻¹
FXa kcat/KM [13]: 540 M⁻¹ s⁻¹
FXa kcat/KM [14]: 420 M⁻¹ s⁻¹
FXa kcat/KM [15]: 54 M⁻¹ s⁻¹

B2: Human plasma purified Factor Xa (Molecular Innovations, Inc) (protein)
chain 1: ANSFLEEMKKGHLERECMEETCSYEEAREVFEDSDKTNEFWNKYKDGDQCETSPCQNQGKCKDGLGEYTCTCLEGFEGKNCELFTRKLCSLDNGDCDQFCHEEQNSVVCSCARGYTLADNGKACIPTGPYPCGKQTLER
chain 2: IVGGQECKDGECPWQALLINEENEGFCGGTILSEFYILTAAHCLYQAKRFKVRVGDRNTEQEEGGEAVHEVEVVIKHNRFTKETYDFDIAVLRLKTPITFRMNVAPACLPERDWAESTLMTQKTGIVSGFGRTHEKGRQSTRLKMLEVPYVDRNSCKLSSSFIITQNMFCAGYDTKQEDACQGDSGGPHVTRFKDTYFVTGIVSWGEGCARKGKYGIYTKVTAFLKWIDRSMKTRGLPKAKSHAPEVITSSPLK
FXa kcat/KM [16]: 950 M⁻¹ s⁻¹
FXa kcat/KM [17]: 530 M⁻¹ s⁻¹
FXa kcat/KM [18]: 420 M⁻¹ s⁻¹
FXa kcat/KM [19]: 1300 M⁻¹ s⁻¹
FXa kcat/KM [20]: 310 M⁻¹ s⁻¹
FXa kcat/KM [21]: 460 M⁻¹ s⁻¹
FXa kcat/KM [22]: 360 M⁻¹ s⁻¹
FXa kcat/KM [23]: 17 M⁻¹ s⁻¹
FXa kcat/KM [24]: 570 M⁻¹ s⁻¹
FXa kcat/KM [25]: 25 M⁻¹ s⁻¹
FXa kcat/KM [26]: 630 M⁻¹ s⁻¹
FXa kcat/KM [27]: 140 M⁻¹ s⁻¹
FXa kcat/KM [28]: 64 M⁻¹ s⁻¹
FXa kcat/KM [29]: 59 M⁻¹ s⁻¹
FXa kcat/KM [30]: 11 M⁻¹ s⁻¹
FXa kcat/KM [31]: 2400 M⁻¹ s⁻¹
FXa kcat/KM [32]: 49 M⁻¹ s⁻¹
FXa kcat/KM [33]: 200 M⁻¹ s⁻¹
FXa kcat/KM [34]: 49 M⁻¹ s⁻¹
FXa kcat/KM [35]: 62 M⁻¹ s⁻¹
FXa kcat/KM [36]: 6.4 M⁻¹ s⁻¹
FXa kcat/KM [37]: 460 M⁻¹ s⁻¹
FXa kcat/KM [38]: 13 M⁻¹ s⁻¹
FXa kcat/KM [39]: 89 M⁻¹ s⁻¹
FXa kcat/KM [40]: 20 M⁻¹ s⁻¹
FXa kcat/KM [41]: 8.5 M⁻¹ s⁻¹
